Consider 1 substance from patent US20070134734.

Data set [1] has as its target GST-fused eIF4B (GST gene fused to the N-terminus), cell-free synthesized (UniProt P23588).
Data set [2] concerns the target GST-fused stress-induced phosphoprotein 1 (STIP1) (GST gene fused to the N-terminus), cell-free synthesized (UniProt P31948).

Sequence of GST-fused eIF4B (GST gene fused to the N-terminus), cell-free synthesized (P23588 whole entry, the tested form may be a part): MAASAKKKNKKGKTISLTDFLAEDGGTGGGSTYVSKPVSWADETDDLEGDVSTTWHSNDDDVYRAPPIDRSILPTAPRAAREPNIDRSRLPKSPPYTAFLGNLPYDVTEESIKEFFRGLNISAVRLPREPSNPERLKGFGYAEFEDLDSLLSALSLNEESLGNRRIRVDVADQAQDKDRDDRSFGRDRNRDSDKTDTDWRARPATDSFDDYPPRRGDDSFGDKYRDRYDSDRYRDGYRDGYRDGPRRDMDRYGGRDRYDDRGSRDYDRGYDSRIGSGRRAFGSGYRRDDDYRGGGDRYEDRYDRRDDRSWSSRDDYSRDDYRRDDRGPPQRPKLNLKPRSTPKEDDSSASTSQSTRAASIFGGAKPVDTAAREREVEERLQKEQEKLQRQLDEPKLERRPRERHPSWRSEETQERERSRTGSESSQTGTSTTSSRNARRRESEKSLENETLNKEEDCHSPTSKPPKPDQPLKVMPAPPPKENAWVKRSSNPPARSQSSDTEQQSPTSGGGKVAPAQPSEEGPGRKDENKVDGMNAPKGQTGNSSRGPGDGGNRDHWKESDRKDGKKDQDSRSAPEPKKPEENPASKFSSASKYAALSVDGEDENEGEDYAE

Take “human CaMKIIδ protein (calmodulin kinase II delta), synthesized in a wheat embryo cell-free protein synthesis system”: the “in vitro phosphorylation assay ([γ-32P]ATP, GST-fused substrate on glutathione resin, SDS-PAGE autoradiography)” value is “there was reproduced the reaction in which GST-fused eIF4B and STIP1 were phosphorylated by CaMKIIδ” in data set [1]; “there was reproduced the reaction in which GST-fused eIF4B and STIP1 were phosphorylated by CaMKIIδ” in data set [2].
